Publication PMC10315472

Legend:
Test in all cases: SPR
[1] = target: wild-type SARS-CoV-2 Spike receptor-binding domain (SARS-CoV-2) (UniProt P0DTC2)
[2] = target: AMSIN (actinomyces)
[3] = target: emorisin (Emergomyces orientalis)

Row | Substance | Kd [1] | Kd [2] | Kd [3]
1 | (ΔGFG)AMSIN (peptide) | 119 nM |  | 
2 | wild-type SARS-CoV-2 Spike receptor-binding domain (from UniProt P0DTC2 319-527) (domain or fragment) |  | 193 nM | 7.6 nM
